From the DeepSol protein solubility set

Test: soluble on expression in E. coli; label from the status in PepcDB or PDB records

Sequence	soluble on expression in E. coli
SLTAISKMTRGLDYYEVMGLTRSANDIDIRRAYRRLALKYHPDINKDGAAGDEFLRICEAYEVLCDPKTKGFYDLYGEDALKDGISDGNGGLKGPMYRFNPEESPKAVFERFFGTANPYEALEALSNQFESMTSEEAPARGKNKVYPLELTLEEIFHGCLKKVAHKRKVLLFSGEYVEEERQLTVDVKPGLPTGTRFVFEGEGNKTPKKEPGPVVFVLKPKPHPRFVRRGSDLVHKVTLPLHHALIGTTLDIRTLDDRDLKVPISDIMRPGSSLTVPGEGMPLPATPSARGNLVIEIDLLFPTHLTETQKMLLRSAFFLPPPTEQNEETKKALRDYEAAFKHDLKGWATVFKRL	not soluble
GLGRKPHTRILSFEKLEADKFICQHLNLSLGEAVFKLSRLRIADNEPLMVEDTYLPVKFFLSLTDQLLRSKPLYDLFSEDFKQTVRLADEELYASIASKEDAKLLMIPEGAPVLHLARQTYNMKNEIIEFTLSVARADQFHYQIRHIRNS	soluble
MGSDKIHHHHHHLTDMLAPRVVARLRGVTKSFDGTTVVRNVDLDFRSGEVHVLAGENGAGKSTLTKLLAGIHQPDHGTVEINGQMGPFDVKSSRTAGVTLVHQELLIAPNLTVADNLAMGQENRNRFRGLDRTATLENARAQLAHIGATFPVTMRAEELTVADHQQIEIARALAQKPKILILDEPTSALSSAETERLLRIVDELRRNGTSVIYITHRMEEIEALADIVSIMRDGSLVETMPKAEATPDAIVLRMVGRKIDSLFTAERPEPGRVVLRVEQLTNGKDIGPIDLDVRAGEVVGIGGLIGSGRSEFVRLIFGADRASSGTVSVDGSPVNVTGPGSAVRAGIALLPESRKTQGLVLDQSIAANIVLASLGHISSAGVVTPAAVKRVASKAQKRLGIKSASLGQEVTTLSGGNQQKVLFAKWLETKPKVLILDEPTRGVDVGAKAEIYQIINECAHAGVAVLVISSELPELIGLSSRVHVMREGRLVAEIDAQSLTEEAVMNHAFGIAQATQA	not soluble
MGSSHHHHHHSSGLVPRGSHMTVYTASVTAPVNIATLKYWGKRDTKLNLPTNSSISVTLSQDDLRTLTSAATAPEFERDTLWLNGEPHSIDNERTQNCLRDLRQLRKEMESKDASLPTLSQWKLHIVSENNFPTAAGLASSAAGFAALVSAIAKLYQLPQSTSEISRIARKGSGSACRSLFGGYVAWEMGKAEDGHDSMAVQIADSSDWPQMKACVLVVSDIKKDVSSTQGMQLTVATSELFKERIEHVVPKRFEVMRKAIVEKDFATFAKETMMDSNSFHATCLDSFPPIFYMNDTSKRIISWCHTINQFYGETIVAYTFDAGPNAVLYYLAENESKLFAFIYKLFGSVPGWDKKFTTEQLEAFNHQFESSNFTARELDLELQKDVARVILTQVGSGPQETNESLIDAKTGLPKE	soluble
MPIVMARDLEETASSSEDEEVISQEDHPCIMWTGGCRRIPVLVFHADAILTKDNNIRVIGERYHLSYKIVRTDSRLVRSILTAHGFHEVHPSSTDYNLMWTGSHLKPFLLRTLSEAQKVNHFPRSYELTRKDRLYKNIIRMQHTHGFKAFHILPQTFLLPAEYAEFCNSYSKDRGPWIVKPVASSRGRGVYLINNPNQISLEDNILVSRYINNPLLIDDFKFDMRLYVLVTSYDPLVIYLYEEGLARKCNWKMGNTMDKRRLPIYVQVL	not soluble
MTSITAIFFDLDGTLVDSSIGIHNAFTYTFKELGVPSPDAKTIRGFMGPPLESSFATCLSKDQISEAVQIYRSYYKAKGIYEAQLFPQIIDLLEELSSSYPLYITTTKDTSTAQDMAKNLEIHHFFDGIYGSSPEAPHKADVIHQALQTHQLAPEQAIIIGDTKFDMLGARETGIQKLAITWGFGEQADLLNYQPDYIAHKPLEVLAYFQ	soluble
MHHHHHHSSGVDLGTENLYFQSMGQCSVLLFPGQGSQVVGMGRGLLNYPRVRELYAAARRVLGYDLLELSLHGPQETLDRTVHCQPAIFVASLAAVEKLHHLQPSVIENCVAAAGFSVGEFAALVFAGAMEFAEGLYAVKIRAEAMQEASEAVPSGMLSVLGQPQSKFNFACLEAREHCKSLGIENPVCEVSNYLFPDCRVISGHQEALRFLQKNSSKFHFRRTRMLPVSGAFHTRLMEPAVEPLTQALKAVDIKKPLVSVYSNVHGHRYRHPGHIHKLLAQQLVSPVKWEQTMHAIYERKKGRGFPQTFEVGPGRQLGAILKSCNMQAWKSYSAVDVL	soluble
MGSDKIHHHHHHRFMRIMMTSVLNNTKTQKVKFWLLKNYLSPKFKETIPKLAEFYKFEFELVEYKWPKWLHKQTEKQRVMWGYKILFLDVLFPLNVDKIIFVDADQVVRADLQELMDFNLNGAPYGYVPFCESRTEMDGFRFWKSGYWKNHLMGRKYHISALYVVDLKAFREFSAGDRLRGRYDSLSADPNSLSNLDQDLPNNMLHEVPIKSLPQEWLWCETWCDDGSKEKAKTIDLCNNPLTKEPKLNSAKRIIKEWTEYDSEISKVLNSADINTPSPSVDRDEL	not soluble
SSSRGFNIKARGLCNNNNGGGGTGAKCGRWNPTVEQVKLLTDLFKAGLRTPSTDQIQKISMELSFYGKIESKNVFYWFQNHKARERQKCRKISTVKFDHRQDTDLSKPRRDNVRRHQLPAKG	soluble
MSLSSLDAVLSQDLIVADGPAVEVGDSLEVAYTGWLFQNHVLGQVFDSTANKDKLLRLKLGSGKVIKGWEDGMLGMKKGGKRLLIVPPACAVGSEGVIGWTQATDSILVFEVEVRRVKFAREGHHHHHH	not soluble
MVQKEGVLRVITRNSPATYFQDRNGETGFEYELAKRFAERLGVELKIETADNLDDLYAQLSREGGPALAAAGLTPGREDDASVRYSHTYLDVTPQIIYRNGQQRPTRPEDLVGKRIMVLKGSSHAEQLAELKKQYPELKYEESDAVEVVDLLRMVDVGDIDLTLVDSNELAMNQVYFPNVRVAFDFGEARGLAWALPGGDDDSLMNEVNAFLDQAKKEGLLQRLKDRYYGHVDVLGYVGAYTFAQHLQQRLPRYESHFKQSGKQLDTDWRLLAAIGYQESLWQPGATSKTGVRGLMMLTNRTAQAMGVSNRLDPKQSIQGGSKYFVQIRSELPESIKEPDRSWFALAAYNIGGAHLEDARKMAEKEGLNPNKWLDVKKMLPRLAQKQWYAKTRYGYARGGETVHFVQNVRRYYDILTWVTQPLEHHHHHH	soluble
MSLVTKEREQIYILDGDIPFLAQRARLEANFTMEAKAHIQLFHQYFFNLPPDNDYIKWTVGKAMYMADGTALKQKQALDENGFYSDIISSSAVCTIMCDSIQFDEHERKFTYYGTQLIKRRTKDLKRSMITTGYIESVPRTRNNPHGLLITNWRTLENKDLDYEGHHHHHH	soluble
MNIKLSFISIAFLSLSFNVAANEFEKSQEHYKSVTDLKNKIEILELEKKITELSGEIRNARMPKIDKSAPVLSPQPVVKSSEELQKSIEHIEEELKVELAYLVNNGQQKKYTFNLNGKLITLVNGDFVNGWKFIEDQNKIQFSKGNKVIDVN	not soluble
MGASRMTEIIDISLDITEDTVVMPENPEFDKERLASIGKEGYELYKICMSNHIGTHIDAPAHFVSEGALINQLDLDTLMGKALVVEIKDEHKISVDELKRVNLKDNIRLLFKTRNSELIAENKLTKDFVYIEEQAAGHLVKNGVKLIGLDYFTIDRIEDQDKPAHKEFAGNGVVVIEGVNLLNVEPGEYELVALPIKINADGAPARVILRRLEHHHHHH	soluble
MNDNAFTFQTLHPETIMDALFEQGIMVDSGLTPLNSYENRVYQFQDEDRRRFVVKFYRPERWSVDQIREEHQFALELVKDEVPVAAPLAFNGQTLLAHQGYHYAIFPSVGGRQFEADNIDQMEAVGRYLGRLHQTGRKRPFTFRPDIGLAEYLFEPRQVFEDAALIPSGQKAAFLKATDTLLSAVTECWRTDFATLRLHGDCHAGNILWRDGPLFVDLDDARNGPAIQDLWMLLNGDKAEQRMQLETIIEAYEEVSEFDTAEIGLIEPLRAMRLVYYLAWLIRRWGDPAFPKNFPWLTGEDYWQRQTTTFIEQTKILHEPPLQLTPMYLEHHHHHH	not soluble
MKPDAHQVKQFLLNLQDTICQQLTAVDGAEFVEDSWQREAGGGGRSRVLRNGGVFEQAGVNFSHVHGEAMPASATAHRPELAGRSFEAMGVSLVVHPHNPYVPTSHANVRFFIAEKPGAEPVWWFGGGFDLTPFYGFEEDAIHWHRTARDLCQPFGEDVYPRYKKWCDDYFYLKHRNEQRGIGGLFFDDLNTPDFDHCFAFMQAVGKGYTDAYLPIVERRKAMAYGERERNFQLYRRGRYVEFNLVWDRGTLFGLQTGGRTESILMSMPPLVRWEYDYQPKDGSPEAALSEFIKVRDWGLEHHHHHH	not soluble
MNDIEAAFHQYFEIIDADTPELLKTVFDLRYRILCVHNVIPGFDTNNYPNELESDQYDSHSIHFLLRHRPTNTFIGTTRLILPNPLDPMDKFPTELNTHFYPGFVLDSSSRKHTTEVSRFAILSDFFKRKGERNMLSQSTEIGCKAQERRRFPHPMLGLVVGLIQLCARNNIYHLISAMEPALNKLLGFYSLQMNPIGPPADYHGLRTPYYLYLPDLLDRMYQDHRSLWELITDHGRIWPMNLACIHQKTLKTAYTDNVYISE	not soluble
MADPQGFIKYSRREPAHRPVPLRLMDHSEVYEKAPAGQIEEQAARCMDCGVPFCHEGCPLGNIIPEWNDLVRQGRWKEAYDRLHATNNFPEFTGRLCPAPCEGACVLGINDDSVTIKNVELEIVEKAFREGWVQPVIPSMSTGLSVAVVGSGPAGLAAAQQLTRAGHSVTVFERDDRLGGLMRYGVPEYKMENRWIDRRIEQMEAEGTTFQVGTSPRAAELALFDAILLATGTPVARELSVPGHDLNGIHAAMDYLTAQNRINEGDGEVSPINAKGKKVVIIGGGDTGTDCFGTALRQGAESVTQFDIRPRAPFQRADSTPWPMYPNLFRTATAHEEGEYIITGDESADEIAALGLAERAAGSTLGERKFAVNTVEFHGNNGHVTGLTGNQIRVVNGKREPIEGTEFPFEADLVLVALGFTGAEQGGLAHELGVGFDDRGRILRDSEYRSPTNSRVYIAGDNGRGQSLIVWAIAEGRACAAAIDADLMGETALPVAVAPQDVPLAVLEHHHHHH	not soluble
EPAHGRQHTPCLFCDRLFASAEETFSHCKLEHQFNIDSMVHKHGLEFYGYIKLINFIRLKNPTVEYMNSIYNPVPWEKDEYLKPVLEDDLLLQFDVEDLYEPVSTPFS	soluble
MVNAIRTPDQRFSNLDQYPFSPNYLDDLPGYPGLRAHYLDEGNSDAEDVFLCLHGEPTWSYLYRKMIPVFAESGARVIAPDFFGFGKSDKPVDEEDYTFEFHRNFLLALIERLDLRNITLVVQDWGGFLGLTLPMADPSRFKRLIIMNACLMTDPVTQPAFSAFVTQPADGFTAYKYDLVTPSDLRLDQFMKRWAPTLTEAEASAYAAPFPDTSYQAGVRKFPKMVAQRDQACIDISTEAISFWQNDWNGQTFMAIGMKDKLLGPDVMYPMKALINGCPEPLEIADAGHFVQEFGEQVAREALKHFAETE	soluble
AHHHHHHASAKWVCKICGYIYDEDAGDPDNGISPGTKFEELPDDWVCPICGAPKSEFEKLEDGSIEIRTHTALHVLKGAVVKVLGEGAKWTASVYVNGNHGRLTVKFNRKPTHEEIREIERLANEKIKENVPIQIYELSREEAEKIFGDEMYDLFPVPEHVRTLKVVVIEDWNVNACNKEHTKTTGEIGEIKIRKVRFRKSKELLEISFDVL	soluble
